We go through 21 variants from the RNAGym collection of RNA variant scans (doi:10.1073/pnas.2313332121).

B1: TPR t1 (parent)
chain: GACCAAUCUGCCCUCAGAGCUCGAGAACAUCUUCGGAUGCAGAGGAGGCAGGCUUCGGUGGCGCGAUAGCGCCAACGUCCUCAACCUCCAAUGCAUCCCACCACAUGAUGAUGCCUGAAGAGCCUUGGUUUUUUG

In the series the parent is B1. Put plainly: polymerase ribozyme fitness, log enrichment relative to wild type (log ratio); higher = more active; in vitro selection for triplet polymerase activity. In a few lines: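 Fitness compares each genotype's enrichment to that of the wild type on a logarithmic scale, averaging replicates with inverse-variance weights. The logarithm is base 2. Enrichment came from Illumina sequencing of input and output libraries after one triplicate round of in vitro selection, which included frozen incubation at −7 °C, of PCR-built, transcribed mutant libraries of each subunit of a heterodimeric triplet polymerase ribozyme. Only genotypes with ≥10 input reads and ≥1 read per output were kept.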
Turning to GACCAAUCUGCCCUCAGGGCUGGAGAUCAUCUUCGGAUGCAGAGGAGGCAGGCUUCGGUGGCGCGAUAGCGCCAACGUCCUCAACCUCCAAUGCAUCCCACCACAUGAUGAUGCCUCAAGAGCCUUGGUUUUUUG, the “polymerase ribozyme fitness (log ratio)” value was -4.21.
With GACCAAUCUGCCCUCAGGGGUCGAGAACAUAUUCGGAUGCAGAGGAGGCAGGCUUCGGUCGCGCGAUAGCGCCAACGUCCUCAACCUCCAAUGCAUCCAACCACAUGAUUAUGCCUGAAGAGCCUUGGUUUUUUG, the “polymerase ribozyme fitness (log ratio)” value was -1.91.
As to GACCAAUCUGCCCUCAGGGCUCGAGAACAUCUUCGGAUGCAGAGGAGGCAGGCUUCGGUGGCGCGAUAGCGACAACGUCCUCAACCUCCAAUGCAUCCCACCACAUGAUGAUGCCUGAAGAGCCUUGGUUUUUUG, the “polymerase ribozyme fitness (log ratio)” value was -2.98.
As for GACCAAUCUGCCCUCAGGGCUCGAGAACAUCUUCGGAUGCAGAGGAGGAAGGCUUCGGUGGCGCGAUAGCGCCAACGUUCUCAACCUCCAAUGCAUCCCACCACAUGAUGAUGCCUGAACAGCCUUGUUUUUUUG, the “polymerase ribozyme fitness (log ratio)” value was -5.04.
As for GACCAAUCUGCCCUCAGGGCUCGAGAACAUCUUCGGAUGCAGAGGAGGCAGGCUUCGGUGGCGCGAUAGCGCCAACGUCCUCAACCUCCAAUGCAUCCCACCACAUGAUGAUGCCUGGAGAGCCUUGGUUUUUUG, the figure is -3.1.
As to GACCAAUCUGCCCUCAGGGUUCGAGAACUUCGUCGGAUGCAGAGGAGGCAGGAUUCGGUGGCGCGAUAGCGCCAACGUCCUCAACCUCCAAUGCAUUCCACCACAUGAUGAUGCCUGAAGAGCCUUGGUUUUUUG, the “polymerase ribozyme fitness (log ratio)” value is -2.71.
To GACCAAUCUGCCCUCAGGGCUCGAGAACAUCUUCGGAUGCAGAGGAGGCAGGCUUCGGUGGUGCGAUAGCGCCAACGUCCUCAACCUCCAAUGCAUCCCACCACAUGAUGAUGCCUGAAGAGCCUUGGUUUUUUG belongs -2.68.
As for GACCAAUCUGCCCUCAGGGUUCGAGAACAUCUUCGGAUGCAGAGGAGGCAGGCUUCGGUGGCGCGAUAGCGCCAACGUCCUCAACCUCCAAUGCCUCCCACCACAUGAUGAUGCCUGAAGAGCCUUGGUUUUUUG, the figure is -1.56.
On to GACCAAUCUGCCCUCAGGGCUCGAGAACAUCUUCGGAUGCAGAGGAGGCAGGCUUCGGUGGCGGGAUAGCGCCAACGUCCUCAACCUCCAAUGCAUCUCACCACAUGAUGAUGCCUCAAGAGCCUUGGUUUUUUG, for which the “polymerase ribozyme fitness (log ratio)” value was -5.51.
In the case of GACCAAUCUGCCCUCAGGGCUCGAGAACAUCUUCGGAUGCAGAGGAGGCAGGCUUGGGUGGCGCGAUAGCGCCAACGUCCUCUACCUCCAAUGCAUCCCACCACAUGAUCAUGCCUGAAGAGCCUUGGUUUUUUG, the “polymerase ribozyme fitness (log ratio)” value was -4.59.
On to GACCAAUCUGCCCUCAGGGCUCGAGAACAUCUUCGGAUGCAGAGGAGGCAGGCUUGGCUGGCGCGAUAGCGCCAACGUCCUCAACCUCCAAUGCAUCCCACCACAUGAUGAUGACUGAAGAGCCUUGGUUUUUUG, for which the “polymerase ribozyme fitness (log ratio)” value is -3.34.
As for GACCAAUCUGCCCUCAGGGCUCGAGAACAUCUUCGGAUGUAGAGGAGGCAGGUUUCGGUGGCGCGAUAGCGCCAACGUCCUCUACCUCCAAUCCAUCCCACCACAUGAUGAUGCCUGAAGAGCCUUGGUUUUUUG, the “polymerase ribozyme fitness (log ratio)” value is -5.03.
On to GACCAAUCUGCCCUCAGGGUUCGAGAACAUCUUCGGAUACAGGGGAGGAAGGCUUCGGUGGCGCGUUAGCGCCAACGGCCUCAACCUCCAAUGCAUCCCACCACAUGAUGAUGCCUGAAGAGCCUUGGUUUUUUG, for which the “polymerase ribozyme fitness (log ratio)” value is -6.02.
As to GACCAAUCUGCCCUCAGGGCUCGAGAACAUCUUCGGAUGCAGAGGAGGUAGGCUUCGGUGGCGCGAUAGCGCCAACGUCCUCAACCUCCAAUGCAUCCCACCACAUAAUGAUGCCUGAAGAGCCUUGGUUUUUUG, the “polymerase ribozyme fitness (log ratio)” value is -5.11.
In the case of GACCAAUCUGCCCUCAGGGCUCGAGAACAUCUUCGGAUGCAGAGGAGGAAGGCUUCGGUGGCGCGAUAGCGCCAACGUCCUCAACCUCCAAAGCAUCCCACCACAUGAUGAUGCCUGAAGAGACUUGGUUUUUUG, the “polymerase ribozyme fitness (log ratio)” value is -4.5.
In the case of GACCAAUCUGCCCUCAGGGCUCGAGAACAUCUUCGGAUGCAGAGGAGGCAGGCUUCGGUGGCGCGAUAGAGCCAACGUCCUCAACCUCCAAUGCAUCCCACCACAUGAUGAUGCCUGAAGAGCCUUGGUUUUUUG, the “polymerase ribozyme fitness (log ratio)” value is -4.01.
In the case of GACCAAUCUGCCCUCAGGGCUCGAGAACAUCUUCGGAUGCAGAGGAGGCAGGCUUUGGUGGCGCGAUAGCGCCAACGUCCUCAACCUCCAAUGCAUCCCACCACAUGAUGAUGCCUGAAGAGCCUUGGUUUUUUG, the “polymerase ribozyme fitness (log ratio)” value was -2.25.
As for GACCAAUCUGCCCUCAGGGUUCGAGAACAUCUUCGGAUGCAGAGGAGGCAGGCUUCGGUGGCGCGAUAGCGCCAACGUCCUCAACCUCCAAUUCAUCCCACCACAUGAAGAUGCAUGAAGAGCCUUGGUUUUUUG, the “polymerase ribozyme fitness (log ratio)” value was -5.78.
Consider GACCAAUCUGCCCUCAGGGCUCGAGAACAUAUUCGGAUGCAGAGGAGGCAGGCUUCGGUGGUGCGAUAGCGCCAACGUCCUCAACCUCCAAUGCAUCCCACCACAUGAUGAAGCUUGAAGAUCCUUGGUUUUUUG, for which the “polymerase ribozyme fitness (log ratio)” value was -5.9.
On to GACCAAUCUGCCCUCAGGGCUCGAGAACAUCUUGGGAUGCAGAGGAGGCAGGCUUCGGUGGCGCGAUAGAGCCAACGUCCUCAACCUCCAAUGCAUCCCACCACAUGAAGAUGCCUGAAGAGCCUUGAUUUUUUG, for which the “polymerase ribozyme fitness (log ratio)” value is -5.92.
On to GACCAAUCUGCCCUCAGGGCUCGAGAACAUCUUCGGAUGCAGAGGAGGCAGGCUUCGGUGGUGCGAUAGCGCCAACGUCCUCAACGUCCAAUGCAUCCCACCACAUGAUGAUGCCUGAAGAGCCUUGGUUUUUUG, for which the “polymerase ribozyme fitness (log ratio)” value is -4.96.
